Reference: IntAct's records for PubMed 22522702

B1: ADP-ribosylation factor 6 (Mus musculus), P62331 (parent)
chain: MGKVLSKIFGNKEMRILMLGLDAAGKTTILYKLKLGQSVTTIPTVGFNVETVTYKNVKFNVWDVGGQDKIRPLWRHYYTGTQGLIFVVDCADRDRIDEARQELHRIINDREMRDAIILIFANKQDLPDAMKPHEIQEKLGLTRIRDRNWYVQPSCATSGDGLYEGLTWLTSNYKS
partner: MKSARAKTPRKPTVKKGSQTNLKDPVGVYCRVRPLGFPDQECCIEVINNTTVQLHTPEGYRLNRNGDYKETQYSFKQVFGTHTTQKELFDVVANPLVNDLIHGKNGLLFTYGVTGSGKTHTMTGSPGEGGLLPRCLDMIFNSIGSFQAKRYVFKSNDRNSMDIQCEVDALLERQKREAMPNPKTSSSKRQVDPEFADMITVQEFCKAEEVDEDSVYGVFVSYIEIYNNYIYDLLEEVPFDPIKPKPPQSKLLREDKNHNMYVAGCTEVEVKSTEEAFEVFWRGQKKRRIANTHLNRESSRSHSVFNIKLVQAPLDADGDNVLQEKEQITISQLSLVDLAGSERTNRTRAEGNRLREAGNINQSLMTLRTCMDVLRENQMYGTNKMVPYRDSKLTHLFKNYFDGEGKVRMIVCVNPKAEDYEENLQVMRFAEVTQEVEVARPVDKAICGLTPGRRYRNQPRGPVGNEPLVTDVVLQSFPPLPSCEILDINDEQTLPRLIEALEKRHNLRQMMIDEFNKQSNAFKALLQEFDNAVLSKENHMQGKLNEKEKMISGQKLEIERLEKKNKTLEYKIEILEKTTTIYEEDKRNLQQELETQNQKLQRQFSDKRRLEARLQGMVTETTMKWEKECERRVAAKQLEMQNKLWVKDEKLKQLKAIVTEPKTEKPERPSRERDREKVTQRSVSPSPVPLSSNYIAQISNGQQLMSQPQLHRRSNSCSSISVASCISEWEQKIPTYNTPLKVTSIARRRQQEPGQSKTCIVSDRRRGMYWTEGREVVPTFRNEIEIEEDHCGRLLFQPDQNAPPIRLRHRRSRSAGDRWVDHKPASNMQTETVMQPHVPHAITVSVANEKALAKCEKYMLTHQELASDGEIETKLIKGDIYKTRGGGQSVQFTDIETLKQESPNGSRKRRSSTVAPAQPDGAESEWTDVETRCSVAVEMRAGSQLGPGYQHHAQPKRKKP
B2: ADP-ribosylation factor 6 (Mus musculus), P62331 (parent)
chain: B1 chain
partner: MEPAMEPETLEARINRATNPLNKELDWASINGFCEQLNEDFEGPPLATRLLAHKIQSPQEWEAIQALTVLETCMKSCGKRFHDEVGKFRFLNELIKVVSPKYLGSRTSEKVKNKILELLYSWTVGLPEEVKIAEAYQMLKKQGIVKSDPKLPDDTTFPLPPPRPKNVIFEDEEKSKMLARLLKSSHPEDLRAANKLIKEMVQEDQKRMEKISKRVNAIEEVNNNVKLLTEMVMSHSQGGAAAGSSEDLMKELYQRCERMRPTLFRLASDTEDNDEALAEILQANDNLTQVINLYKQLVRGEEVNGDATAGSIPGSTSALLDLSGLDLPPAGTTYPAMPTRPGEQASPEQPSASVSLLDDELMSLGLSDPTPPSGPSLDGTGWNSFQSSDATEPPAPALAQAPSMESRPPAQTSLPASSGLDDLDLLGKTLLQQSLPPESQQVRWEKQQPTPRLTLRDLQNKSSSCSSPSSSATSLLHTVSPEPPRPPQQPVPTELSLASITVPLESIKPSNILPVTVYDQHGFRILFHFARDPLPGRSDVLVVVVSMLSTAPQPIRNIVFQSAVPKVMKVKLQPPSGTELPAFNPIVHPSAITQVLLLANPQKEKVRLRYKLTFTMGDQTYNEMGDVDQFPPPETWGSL
B3: ADP-ribosylation factor 6 (Mus musculus), P62331 (parent)
chain: B1 chain
partner: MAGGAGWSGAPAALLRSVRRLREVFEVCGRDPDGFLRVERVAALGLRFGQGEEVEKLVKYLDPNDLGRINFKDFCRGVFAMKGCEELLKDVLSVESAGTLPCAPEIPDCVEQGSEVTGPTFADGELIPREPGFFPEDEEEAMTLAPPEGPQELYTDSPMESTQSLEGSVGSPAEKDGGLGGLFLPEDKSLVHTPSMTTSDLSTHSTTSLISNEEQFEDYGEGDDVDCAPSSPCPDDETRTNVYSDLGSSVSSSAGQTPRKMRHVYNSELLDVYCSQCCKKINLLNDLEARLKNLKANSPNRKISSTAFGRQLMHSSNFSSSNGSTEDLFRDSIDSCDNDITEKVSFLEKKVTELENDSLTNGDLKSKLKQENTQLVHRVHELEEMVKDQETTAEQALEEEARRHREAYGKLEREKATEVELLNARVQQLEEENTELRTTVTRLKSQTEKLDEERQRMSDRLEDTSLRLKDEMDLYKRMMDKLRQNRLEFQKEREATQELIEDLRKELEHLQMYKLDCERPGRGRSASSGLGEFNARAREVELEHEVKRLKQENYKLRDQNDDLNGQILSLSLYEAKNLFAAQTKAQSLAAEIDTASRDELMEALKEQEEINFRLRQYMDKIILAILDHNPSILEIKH
B4: ADP-ribosylation factor 6 (Mus musculus), P62331 (parent)
chain: B1 chain
partner: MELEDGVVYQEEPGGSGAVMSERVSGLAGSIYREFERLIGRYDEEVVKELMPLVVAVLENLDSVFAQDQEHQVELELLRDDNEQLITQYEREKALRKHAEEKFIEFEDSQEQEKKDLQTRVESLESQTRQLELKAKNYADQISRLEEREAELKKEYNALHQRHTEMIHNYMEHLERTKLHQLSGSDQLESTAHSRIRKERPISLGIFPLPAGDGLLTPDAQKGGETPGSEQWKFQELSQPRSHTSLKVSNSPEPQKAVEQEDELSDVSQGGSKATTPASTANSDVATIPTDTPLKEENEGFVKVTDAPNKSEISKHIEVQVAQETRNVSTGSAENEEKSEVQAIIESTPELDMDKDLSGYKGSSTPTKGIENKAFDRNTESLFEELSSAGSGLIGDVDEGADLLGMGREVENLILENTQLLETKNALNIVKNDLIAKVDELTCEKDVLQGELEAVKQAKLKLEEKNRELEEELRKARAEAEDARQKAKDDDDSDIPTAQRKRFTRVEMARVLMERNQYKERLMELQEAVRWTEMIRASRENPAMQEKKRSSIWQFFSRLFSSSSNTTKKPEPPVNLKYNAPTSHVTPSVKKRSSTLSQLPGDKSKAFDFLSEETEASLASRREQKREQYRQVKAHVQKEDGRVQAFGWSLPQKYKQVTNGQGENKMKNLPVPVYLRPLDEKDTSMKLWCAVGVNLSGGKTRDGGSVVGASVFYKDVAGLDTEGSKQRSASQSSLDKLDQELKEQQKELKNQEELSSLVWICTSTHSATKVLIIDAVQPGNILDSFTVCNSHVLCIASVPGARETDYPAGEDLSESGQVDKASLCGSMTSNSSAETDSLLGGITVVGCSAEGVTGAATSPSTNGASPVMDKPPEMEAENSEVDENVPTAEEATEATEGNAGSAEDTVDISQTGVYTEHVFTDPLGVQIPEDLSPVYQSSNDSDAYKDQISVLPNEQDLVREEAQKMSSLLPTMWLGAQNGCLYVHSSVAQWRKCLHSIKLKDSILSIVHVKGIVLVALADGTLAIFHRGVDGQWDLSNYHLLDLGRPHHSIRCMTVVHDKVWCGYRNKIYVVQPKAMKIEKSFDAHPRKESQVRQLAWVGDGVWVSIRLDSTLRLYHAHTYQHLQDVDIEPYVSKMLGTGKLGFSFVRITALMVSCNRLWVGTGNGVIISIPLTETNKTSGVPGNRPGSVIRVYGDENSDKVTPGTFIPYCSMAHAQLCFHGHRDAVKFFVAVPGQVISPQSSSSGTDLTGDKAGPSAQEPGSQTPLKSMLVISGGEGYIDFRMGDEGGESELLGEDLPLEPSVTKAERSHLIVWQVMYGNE

Variants of: B1
Details: with kif23_human KIF23, Q02241

Variant	effect of a mutation on the interaction
Q67L	increasing interaction

Variants of: B1
Details: with kif23_human KIF23, Q02241
Remark: another data set of the same source

Variant	effect of a mutation on the interaction
Q67L	disrupting interaction
Y77A	disrupting interaction

Variants of: B1
Details: with kif23_human KIF23, Q02241
Remark: another data set of the same source

Variant	effect of a mutation on the interaction
Q67L	decreasing interaction
H76A	decreasing interaction

Variants of: B1
Details: with kif23_human KIF23, Q02241
Remark: another data set of the same source

Variant	effect of a mutation on the interaction
T27N	decreasing interaction

Variants of: B2
Details: with gga1_human GGA1, Q9UJY5

Variant	effect of a mutation on the interaction
Q67L	disrupting interaction
Y77A	disrupting interaction

Variants of: B2
Details: with gga1_human GGA1, Q9UJY5
Remark: another data set of the same source

Variant	effect of a mutation on the interaction
H76A	disrupting interaction

Variants of: B3
Details: with rfip4_human RAB11FIP4, Q86YS3

Variant	effect of a mutation on the interaction
Q67L	disrupting interaction
H76A	disrupting interaction

Variants of: B3
Details: with rfip4_human RAB11FIP4, Q86YS3
Remark: another data set of the same source

Variant	effect of a mutation on the interaction
Y77A	disrupting interaction

Variants of: B4
Details: with jip4_human SPAG9, O60271

Variant	effect of a mutation on the interaction
Q67L	disrupting interaction
Y77A	disrupting interaction

Variants of: B4
Details: with jip4_human SPAG9, O60271
Remark: another data set of the same source

Variant	effect of a mutation on the interaction
H76A	disrupting interaction
